As a reminder, the Km is the substrate concentration at which the rate is half of its maximum.

This note sets out measurements from patent US9057062B2, “Enzyme produced by Arthrobacter globiformis” (MATSUTANI CHEMICAL INDUSTRY CO., LTD., priority 2011, dated 2015).

Holding throughout (format): biochemical, Arthrobacter globiformis M30
Data set [1] deals with ketose 3-epimerase (D-PE) (Arthrobacter globiformis, UniProt A0A1L7NQ96).
Substrate in data set [2]: O=C(CO)[C@H](O)[C@H](O)[C@H](O)CO
Kind of data set: Km and Vmax of the present enzyme. The conditions noted are these: other: 30° C., in the presence of Mg2+ ions. Here is the method:
(§1) The enzyme reaction was performed at 30° C. for 30 min, and the amount of the enzyme that produced 1 micromole of D-fructose in 1 min under these conditions was taken as one unit. After the reaction, the reaction mixture was put in a boiling liquid for 3 min to quench the reaction. After deionization, the product D-fructose was measured by HPLC analysis. Protein measurement was performed by using the Bradford method, using 5 μL of the enzyme liquid added to a Bradford solution (250 μl) and evenly stirred therein.
(§2) The Km and Vmax of the present enzyme for D-psicose and D-fructose were measured. The measurement was made by measuring enzyme activity at 30° C. in the presence of Mg^2+ ions.

Substrate in data set [3]: O=C(CO)[C@@H](O)[C@H](O)[C@H](O)CO
The data set can be described thus: Km and Vmax of the present enzyme. The conditions noted are these: other: 30° C., in the presence of Mg2+ ions. Here is the method: as §1, §2

As for `[Co+2]` [Co^2+, divalent cobalt ions], the “Effect of metal ion on enzyme activity” value in data set [1] is recorded as “activatable”.

Regarding `[Mn+2]` [Mn^2+, divalent manganese ions], the “Effect of metal ion on enzyme activity” value in data set [1] was “activatable”.

B1: ketose 3-epimerase, purified enzyme (Arthrobacter globiformis) (protein)
chain: MKIGCHGLVWTGHFDAEGIRYSVQKTREAGFDLVEFPLMDPFSFDVQTAKSALAEHGLAASASLGLSDATDVSSEDPAVVKAGEELLNRAVDVLAELGATDFCGVIYSAMKKYMEPATAAGLANSKAAVGRVADRASDLGINVSLEVVNRYETNVLNTGRQALAYLEELNRPNLGIHLDTYHMNIEESDMFSPILDTAEALRYVHIGESHRGYLGTGSVDFDTFFKALGRIGYDGPVVFESFSSSVVAPDLSRMLGIWRNLWADNEELGAHANAFIRDKLTAIKTIELH
notes: disrupted with a high-pressure homogenizer to extract the enzyme; made in house; host or cells: Arthrobacter globiformis M30 (native producer); Purified by PEG fractionation, Q-Sepharose ion exchange and RESOURCE PHE hydrophobic chromatography
With B1, the Km in data set [2] was found to be 30.1 mM; in data set [3], 31.5 mM. Further, the values for the Vmax in data set [2] and in data set [3] were 168 U/mg and 68.5 U/mg, respectively.
